Drawing on PMC10879016, this text covers expression_or_secretion for four proteins.

A short description of data set [1]: anti-Myc Western of HEK293T medium, IgG-normalised. Conditions: glycan lost; control: MMRN1 WT-Myc.
Data set [2] is described as follows: anti-Myc Western of medium, IgG-normalised. The settings on record: glycan lost; control: WT HEK293T cells.

B1: multimerin-1 (MMRN1): T216A (protein)
parent chain: MKGARLFVLLSSLWSGGIGLNNSKHSWTIPEDGNSQKTMPSASVPPNKIQSLQILPTTRVMSAEIATTPEARTSEDSLLKSTLPPSETSAPAEGVRNQTLTSTEKAEGVVKLQNLTLPTNASIKFNPGAESVVLSNSTLKFLQSFARKSNEQATSLNTVGGTGGIGGVGGTGGVGNRAPRETYLSRGDSSSSQRTDYQKSNFETTRGKNWCAYVHTRLSPTVILDNQVTYVPGGKGPCGWTGGSCPQRSQKISNPVYRMQHKIVTSLDWRCCPGYSGPKCQLRAQEQQSLIHTNQAESHTAVGRGVAEQQQQQGCGDPEVMQKMTDQVNYQAMKLTLLQKKIDNISLTVNDVRNTYSSLEGKVSEDKSREFQSLLKGLKSKSINVLIRDIVREQFKIFQNDMQETVAQLFKTVSSLSEDLESTRQIIQKVNESVVSIAAQQKFVLVQENRPTLTDIVELRNHIVNVRQEMTLTCEKPIKELEVKQTHLEGALEQEHSRSILYYESLNKTLSKLKEVHEQLLSTEQVSDQKNAPAAESVSNNVTEYMSTLHENIKKQSLMMLQMFEDLHIQESKINNLTVSLEMEKESLRGECEDMLSKCRNDFKFQLKDTEENLHVLNQTLAEVLFPMDNKMDKMSEQLNDLTYDMEILQPLLEQGASLRQTMTYEQPKEAIVIRKKIENLTSAVNSLNFIIKELTKRHNLLRNEVQGRDDALERRINEYALEMEDGLNKTMTIINNAIDFIQDNYALKETLSTIKDNSEIHHKCTSDMETILTFIPQFHRLNDSIQTLVNDNQRYNFVLQVAKTLAGIPRDEKLNQSNFQKMYQMFNETTSQVRKYQQNMSHLEEKLLLTTKISKNFETRLQDIESKVTQTLIPYYISVKKGSVVTNERDQALQLQVLNSRFKALEAKSIHLSINFFSLNKTLHEVLTMCHNASTSVSELNATIPKWIKHSLPDIQLLQKGLTEFVEPIIQIKTQAALSNLTCCIDRSLPGSLANVVKSQKQVKSLPKKINALKKPTVNLTTVLIGRTQRNTDNIIYPEEYSSCSRHPCQNGGTCINGRTSFTCACRHPFTGDNCTIKLVEENALAPDFSKGSYRYAPMVAFFASHTYGMTIPGPILFNNLDVNYGASYTPRTGKFRIPYLGVYVFKYTIESFSAHISGFLVVDGIDKLAFESENINSEIHCDRVLTGDALLELNYGQEVWLRLAKGTIPAKFPPVTTFSGYLLYRT
B1: in data set [1], the expression_or_secretion result is “decreases”.

B2: multimerin-1 (MMRN1): T1055A (protein)
parent chain: B1 parent chain
As to B2, the expression_or_secretion result in data set [1] is “decreases”.

B3: multimerin-1 (MMRN1): POFUT1 KO (protein)
parent chain: B1 parent chain
B3: the expression_or_secretion result in data set [2] is “abolishes”.

B4: multimerin-1 (MMRN1): POFUT2 KO (protein)
parent chain: B1 parent chain
Take B4: the expression_or_secretion result in data set [2] is on record as “no change”.
